The test has as its target HLA-A*02:01 (Homo sapiens, UniProt P04439, D140Y/D185E/D98H/E176V/E277Q/G131W/G231S/I119V/I121R/I166T/I218V/L300P/L318F/N151K/N90K/P208A/P217A/Q86G/Q94H/R138H/R169H/T345S). The test can be described thus: MHC binding assay (UV-ligand exchange, beta2m ELISA). Particulars: binding of HLA-class I restricted peptides to HLA-A*02:01, β2m ELISA. The procedure, abridged: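 UV-cleavable peptide in HLA monomers exchanged for test peptide by UV irradiation; exchange yield measured by streptavidin-capture ELISA with HRP anti-β2m (TMB, 450 nm) on 100-fold diluted complexes. Quantified against refolded HLA-A*02:01/MLA-001 standards (15-500 ng/ml).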

With “20 (ALVDPGPDFVV; listed as Homo sapiens) [compound 20]”, the “Peptide Exchange (MHC class I binding score, peptide exchange yield)” value (from here on “Peptide Exchange”) is listed as ““+++” (≥50 = +++)”.
For the substance “120 (AIDAALTSV; listed as Homo sapiens) [compound 120]”, the “Peptide Exchange” value is recorded as ““+++” (≥50 = +++)”.
Next, “296 (FIAPTGHSL; listed as Homo sapiens) [compound 296]”: ““++” (≥20% = ++)”.
For the substance “94 (ILFPLRFTL; listed as Homo sapiens) [compound 94]”, the “Peptide Exchange” value was ““+++” (≥50 = +++)”.
Turning to “87 (HQIEAVDGEEL; listed as Homo sapiens) [compound 87]”, the “Peptide Exchange” value is recorded as ““++” (≥20% = ++)”.
With “70 (FVPDTPVGV; listed as Homo sapiens) [compound 70]”, the “Peptide Exchange” value was ““+++” (≥50 = +++)”.
Next, “247 (KLKDRLPSI; listed as Homo sapiens) [compound 247]”: ““++” (≥20% = ++)”.
Next, “76 (GLLRIIPYL; listed as Homo sapiens) [compound 76]”: ““+++” (≥50 = +++)”.
On to “251 (LLYDNVPGA; listed as Homo sapiens) [compound 251]”, for which the “Peptide Exchange” value was ““+++” (≥50 = +++)”.
Consider “218 (ALGEEWKGYVV; listed as Homo sapiens) [compound 218]”, for which the “Peptide Exchange” value is on record as ““++” (≥20% = ++)”.
Next, “243 (ILPTLEKELFL; listed as Homo sapiens) [compound 243]”: ““+++” (≥50 = +++)”; “261 (SLVEAQGWLV; listed as Homo sapiens) [compound 261]”: ““+++” (≥50 = +++)”; “135 (MTAGFSTIAGSV; listed as Homo sapiens) [compound 135]”: ““+” (≥10% = +)”.
On to “19 (QVMEKLAAV; listed as Homo sapiens) [compound 19]”, for which the “Peptide Exchange” value is ““+++” (≥50 = +++)”.
For “308 (SLYDVSRMYV; listed as Homo sapiens) [compound 308]”, the “Peptide Exchange” value is reported as ““++++” (≥75% = ++++)”.
For “279 (YMAPEVVEA; listed as Homo sapiens) [compound 279]”, the “Peptide Exchange” value is ““+++” (≥50 = +++)”.
As to “293 (ALDIMIPMV; listed as Homo sapiens) [compound 293]”, the “Peptide Exchange” value is given as ““+++” (≥50 = +++)”.
In the case of “246 (KLDETGVAL; listed as Homo sapiens) [compound 246]”, the “Peptide Exchange” value is ““++” (≥20% = ++)”.
Turning to “157 (SLNIRDFTM; listed as Homo sapiens) [compound 157]”, the “Peptide Exchange” value was ““+++” (≥50 = +++)”.
Regarding “239 (ILAGEMLSV; listed as Homo sapiens) [compound 239]”, the “Peptide Exchange” value is on record as ““+++” (≥50 = +++)”.
Turning to “78 (GLPSFLTEV; listed as Homo sapiens) [compound 78]”, the “Peptide Exchange” value was ““+++” (≥50 = +++)”.
“117 (LLILENILL; listed as Homo sapiens) [compound 117]”: the “Peptide Exchange” value is ““+++” (≥50 = +++)”.
Consider “171 (TLVPPAALISI; listed as Homo sapiens) [compound 171]”, for which the “Peptide Exchange” value was ““+++” (≥50 = +++)”.
Next, “325 (TLENGVPCV; listed as Homo sapiens) [compound 325]”: ““+++” (≥50 = +++)”.
For the substance “383 (YLLREWVNL; listed as Homo sapiens) [compound 383]”, the “Peptide Exchange” value is listed as ““++++” (≥75% = ++++)”.
On to “225 (ILQERELLPV; listed as Homo sapiens) [compound 225]”, for which the “Peptide Exchange” value is recorded as ““+++” (≥50 = +++)”.
Consider “68 (GLDQQFAGLDL; listed as Homo sapiens) [compound 68]”, for which the “Peptide Exchange” value is ““+” (≥10% = +)”.
Consider “27 (AVLGLVWLL; listed as Homo sapiens) [compound 27]”, for which the “Peptide Exchange” value is reported as ““+++” (≥50 = +++)”.
As to “219 (ALLNLLESA; listed as Homo sapiens) [compound 219]”, the “Peptide Exchange” value was ““+++” (≥50 = +++)”.
For the substance “28 (AVLHLLLSV; listed as Homo sapiens) [compound 28]”, the “Peptide Exchange” value was ““++” (≥20% = ++)”.
As to “342 (SLITPLQAV; listed as Homo sapiens) [compound 342]”, the “Peptide Exchange” value is listed as ““+++” (≥50 = +++)”.
For the substance “350 (ALEDRVWEL; listed as Homo sapiens) [compound 350]”, the “Peptide Exchange” value is ““+++” (≥50 = +++)”.
As to “91 (ILDLNTYNV; listed as Homo sapiens) [compound 91]”, the “Peptide Exchange” value was ““+++” (≥50 = +++)”.
In the case of “362 (ILTELGGFEV; listed as Homo sapiens) [compound 362]”, the “Peptide Exchange” value is given as ““+++” (≥50 = +++)”.
Next, “272 (VLDELPPLI; listed as Homo sapiens) [compound 272]”: ““+++” (≥50 = +++)”; “181 (VLLSIPFVSV; listed as Homo sapiens) [compound 181]”: ““+++” (≥50 = +++)”; “172 (TLYDMLASI; listed as Homo sapiens) [compound 172]”: ““+++” (≥50 = +++)”.
For the substance “207 (IIADLDTTIMFA; listed as Homo sapiens) [compound 207]”, the “Peptide Exchange” value was ““+++” (≥50 = +++)”.
For the substance “328 (VLLPQETAEIHL; listed as Homo sapiens) [compound 328]”, the “Peptide Exchange” value was ““++++” (≥75% = ++++)”.
On to “352 (ALVFELHYV; listed as Homo sapiens) [compound 352]”, for which the “Peptide Exchange” value is ““+++” (≥50 = +++)”.
On to “199 (YLVELSSLL; listed as Homo sapiens) [compound 199]”, for which the “Peptide Exchange” value was ““++++” (≥75% = ++++)”.
Turning to “74 (GLLRASFLL; listed as Homo sapiens) [compound 74]”, the “Peptide Exchange” value is listed as ““++” (≥20% = ++)”.
Next, “53 (FLWQHVELVL; listed as Homo sapiens) [compound 53]”: ““+++” (≥50 = +++)”; “148 (SIVASLITV; listed as Homo sapiens) [compound 148]”: ““+++” (≥50 = +++)”; “194 (YLDNVLAEL; listed as Homo sapiens) [compound 194]”: ““++++” (≥75% = ++++)”.
Take “153 (SLLAELHVL; listed as Homo sapiens) [compound 153]”: the “Peptide Exchange” value is recorded as ““+++” (≥50 = +++)”.
As for “345 (YLIEPDVELQRI; listed as Homo sapiens) [compound 345]”, the entry is ““+++” (≥50 = +++)”; as for “51 (FLVEAPHDWDL; listed as Homo sapiens) [compound 51]”, ““++++” (≥75% = ++++)”; as for “382 (YLLPLLQRL; listed as Homo sapiens) [compound 382]”, ““++++” (≥75% = ++++)”.
As for “50 (FLFEPVVKAFL; listed as Homo sapiens) [compound 50]”, the entry is ““+++” (≥50 = +++)”; as for “166 (TLDPNQVSL; listed as Homo sapiens) [compound 166]”, ““++” (≥20% = ++)”; as for “262 (SLWNAGTSV; listed as Homo sapiens) [compound 262]”, ““+++” (≥50 = +++)”.
With “79 (GLQAKIQEA; listed as Homo sapiens) [compound 79]”, the “Peptide Exchange” value is recorded as ““+++” (≥50 = +++)”.
On to “125 (LLLEIGEVGKLFV; listed as Homo sapiens) [compound 125]”, for which the “Peptide Exchange” value was ““+++” (≥50 = +++)”.
As to “306 (VVAEELENV; listed as Homo sapiens) [compound 306]”, the “Peptide Exchange” value is reported as ““++” (≥20% = ++)”.
Next, “121 (RLYEITIEV; listed as Homo sapiens) [compound 121]”: ““++++” (≥75% = ++++)”; “140 (QIAELPATSV; listed as Homo sapiens) [compound 140]”: ““+++” (≥50 = +++)”; “189 (VMLEMTPEL; listed as Homo sapiens) [compound 189]”: ““+++” (≥50 = +++)”.
Next, “354 (FIMDDPAGNSYL; listed as Homo sapiens) [compound 354]”: ““+++” (≥50 = +++)”; “185 (VMDDQRDLI; listed as Homo sapiens) [compound 185]”: ““++” (≥20% = ++)”.
With “163 (SQLDISEPYKV; listed as Homo sapiens) [compound 163]”, the “Peptide Exchange” value is ““+++” (≥50 = +++)”.
